Experimental data: patent publication US20120058499A1, “Bioluminescent Detection of Protease Activity” (priority 2010, published 2012)

Biological target: Ub(1-76)-aminoluciferin (human) (UniProt P0CG48)
Assay: cell-based or functional assay

“UCHL3 (ubiquitin carboxyl-terminal hydrolase isozyme L3) (from UniProt P15374 1-230) (enzyme)” was tested, and the fold decrease in limit of detection against Z-RLRGG-amino-luciferin was 1000 fold.
